Data as given in US12241094B2, “Phenazine degrading agents and related compositions, methods and systems for interfering with viability of bacteria” (priority 2016, dated 2025).
Entries after “also recorded” stand apart in the source; their conditions may differ.

Experiments:
[1] = PYO demethylation in the presence of DNA; assay type: biochemical; details: gDNA pellet, 2 μg mL^−1, 3 hours
Method: Biofilm experiments. For all experiments involving inactivated PodA, either the E154A mutant or PodA30-162 that was subjected to a 1 hour treatment at 98° C. was used. To test the ability of PodA30-162 to degrade PYO in the presence of DNA, genomic DNA (gDNA) from P. aeruginosa PA14 was used in modified versions of previously described assays (59). For experiments using DNA pellets, 0.5 mg of gDNA was pelleted in the presence of 300 mM sodium acetate, pH 5.2 and 70% ethanol. Pellets were washed with 70% ethanol and dried. 200 μL of 800 μM PYO was added to the gDNA pellet without mixing and left to sit at room temperature for 6 hours to allow for diffusion of PYO into the gDNA pellet. The pellet was washed once with 70% EtOH, and submerged in a solution containing 10 mM Tris, pH 7.0 and 40% isopropanol. The pellet remained blue, consistent with an association of PYO with DNA. PodA30-162 was added to the isopropanol solution to a final concentration of 2 μg mL^−1 and left to sit for 3 hours to allow for the reaction to proceed. Tubes were imaged before and after PodA30-162 treatment. […] The PYO gDNA mixture was amended with 1 μg mL^−1 PodA30-162 and loss of PYO was monitored on a BioTek Synergy 4 microplate reader (BioTek) plate reader at 690 nm. Standards were included to quantify PYO loss over time. […]

[2] = tested on: P. aeruginosa biofilm; test: Microcolony number and size in 5 hour biofilms on succinate minimal medium; assay type: cell-based; details: 100 μM 1-OHPHZ or 0.5 μg mL-1 PodA
Text: FIGS. 24A-C show charts and images illustrating results of exemplary experiments showing that PodA and 1-OH-PHZ inhibit the early stages of P. aeruginosa biofilm formation on succinate minimal medium. […] Numbers are averages and SD from 8 biological replicates.

[3] = tested on: P. aeruginosa PA14 biofilms; test: Biofilm formation, surface coverage (chambered coverglass, DAPI); assay type: cell-based; details: for biofilm surface coverage: 5 hours
Method: Biofilm experiments. For all experiments involving inactivated PodA, either the E154A mutant or PodA30-162 that was subjected to a 1 hour treatment at 98° C. was used. To test the ability of PodA30-162 to degrade PYO in the presence of DNA, genomic DNA (gDNA) from P. aeruginosa PA14 was used in modified versions of previously described assays (59). For experiments using DNA pellets, 0.5 mg of gDNA was pelleted in the presence of 300 mM sodium acetate, pH 5.2 and 70% ethanol. Pellets were washed with 70% ethanol and dried. 200 μL of 800 μM PYO was added to the gDNA pellet without mixing and left to sit at room temperature for 6 hours to allow for diffusion of PYO into the gDNA pellet. The pellet was washed once with 70% EtOH, and submerged in a solution containing 10 mM Tris, pH 7.0 and 40% isopropanol. The pellet remained blue, consistent with an association of PYO with DNA. PodA30-162 was added to the isopropanol solution to a final concentration of 2 μg mL^−1 and left to sit for 3 hours to allow for the reaction to proceed. Tubes were imaged before and after PodA30-162 treatment. For experiments using solubilized gDNA, a 400 μg mL^−1 solution of gDNA was mixed with PYO and allowed to equilibrate for 6 hours. The PYO gDNA mixture was amended with 1 μg mL^−1 PodA30-162 and loss of PYO was monitored on a BioTek Synergy 4 microplate reader (BioTek) plate reader at 690 nm. Standards were included to quantify PYO loss over time. To assess biofilm formation in the presence of PodA30-162, biofilms were grown in Nunc Lab-Tek chambered coverglass slides (8-well, 0.8 cm^2 area, supplier #155411) using a modified protocol (22). PA14 was inoculated into succinate minimal medium and grown overnight to stationary phase. Cells were resuspended in fresh medium and diluted to a starting OD500 of 0.5 in succinate minimal medium. PodA30-162 (2 μg mL^−1, final concentration) or DNase (20 μg mL^−1) (22) was added and 250 μL was added to each well of the 8-well chambered coverglass. Cultures were grown for 5 hours at 37° C. and 100 rpm (Innova 44 shaking incubator, New Brunswick) in a humidified chamber. After incubation, liquid was removed from each well by drawing with a pipet tip placed in the corner of each well and chambers were washed twice with 400 μL of biofilm wash (Tris buffer, pH 7.6 and 100 mM NaCl) to remove planktonic and loosely bound cells. Attached biomass was stained by adding 450 μL biofilm wash containing 10 μg mL^−1 DAPI (4′,6-diamidino-2-phenylindole) (Santa Cruz Biotechnology). Surface associated biomass was imaged on a Leica TCS SPE confocal microscope with a ACS APO 40×/1.15 oil immersion objective. A 405 nm solid-state laser was used for excitation, and data was collected from 420-500 nm. […]

[4] = tested on: P. aeruginosa planktonic culture; test: Phenazines in planktonic P. aeruginosa cultures (HPLC); assay type: cell-based
Text: Product was cut with DpnI to remove WT vector, phosphorylated with T4 polynucleotide kinase, and ligated to generate a circular mutant protein expression construct. For D72N and Y156F mutants, DNA fragments encoding the mutation were synthesized (Integrated DNA Technologies) and cloned into pET-20b(+) as for the wild type sequence. Enzymes for cloning were purchased from New England Biolabs. Constructs were transferred to E. coli BL21(DE3) for expression. All mutations were confirmed by Sanger sequencing (Laragen and Retrogen). When necessary, 100 μg mL^−1 carbenicillin was included in all growth media to maintain selection for the plasmid. To measure the effect of PodA30-162 on phenazine production in planktonically grown P. aeruginosa, cultures were grown overnight in 5 mL volumes of tryptic soy broth (TSB) or succinate minimal medium (arginine medium recipe from Glasser et al., 2014 with 40 mM sodium succinate in place of arginine) (3) in the presence 1 μg mL^−1 PodA30-162. Cells were removed by centrifugation and supernatants were analyzed by HPLC as previously described (9). See below for a description of biofilm growth of P. aeruginosa PA14. To induce protein expression, an overnight culture was inoculated 1/1000 in Terrific Broth (BD Difco). Cultures were grown in baffled Erlenmeyer flasks (1 L culture per 3 L flask) at 37° C. with 150 rpm agitation in a shaking incubator (Innova 44 shaking incubator, New Brunswick). After 3-4 hours, the temperature was changed to 16° C. and cultures were induced with 50 μM (final concentration) IPTG and left to incubate overnight. Cells were then pelleted by centrifugation, flash frozen in liquid N2, and stored at −80° C. for up to 1 month before protein purification.

B1: PodA30-162: truncated pyocyanin demethylase encoded by MFORT_14352 of Mycobacterium fortuitum lacking N-terminal helix, SEQ ID NO: 2 (protein, listed as Mycobacterium fortuitum)
chain: MDGRGGRSTTEPVTMTLDVKNDQVAKHDFGKPGMDVGDMDIFSDILSVDGKQVGYDGGACFFTNVTPDNPMTYCELTIHLDAGEIFARSLTPHTLAPFTMAITGGTGEYANSKGELTVSGVATPDEKYELKLTKAENLYFQ
demethylation of PYO associated with precipitated DNA [1]: not protected
microcolony diameter [2]: decreases
number of microcolonies formed ([2]; vs inactive E154A): decreases
biofilm surface coverage ([3]; PodA30-162 2 μg mL^−1, DNase 20 μg mL^−1, vs. PodA-inactive): reduced; also recorded: lower
biofilm surface coverage ([3]; representative images, 82.7 percent in the absence of PodA30-162): 43.5%
phenazines in biofilm supernatants by HPLC ([3]; after 5 hours of growth): conversion of PYO to 1-OH-PHZ
total phenazine concentrations ([4]; TSB): remain constant
enzyme stability in P. aeruginosa overnight culture ([4]; TSB, enzyme added at start of culture): remained stable throughout the incubation period
effect on PYO in planktonic culture ([4]; rich and minimal medium, 1 μg mL^−1 PodA30-162): conversion of PYO to 1-OH-PHZ
phenazine production ([4]; tryptic soy broth, 24 hours): changes to the concentrations of all four phenazines
